Data: article PMC8556327
Where “and” joins values, the source holds several entries; their conditions need not be identical. Identical values can stand only once.

Key:
[1] = target: C-phycocyanin (αβ) monomer from Thermoleptolyngbya sp. O-77 (TlCPC) (Thermoleptolyngbya sp. O-77); assay: AUC; sedimentation velocity, TlCPC 0.92 mg/mL in potassium phosphate buffer (pH 7.0, 10 mM), 20 °C, 60,000 rpm, absorbance at 277 nm, c(s) distribution (SEDFIT); major species 5.24 S, minor species 3.15 S (monomer), 7.97 S and 11.32 S
[2] = target: C-phycocyanin (αβ) monomer from Thermoleptolyngbya sp. O-77 (TlCPC) (Thermoleptolyngbya sp. O-77); assay: crystal structure; TlCPC-6 crystals (rhombus or rod), sitting-drop vapor diffusion at 20 °C; reservoir 8% Tacsimate (pH 5.0), 20% polyethylene glycol 3,350; 1.65 Å
[3] = target: C-phycocyanin (αβ) monomer from Thermoleptolyngbya sp. O-77 (TlCPC) (Thermoleptolyngbya sp. O-77); assay: crystal structure; TlCPC-8 crystals (cube), sitting-drop vapor diffusion at 20 °C (also obtained at 42 °C); reservoir 1.6 M sodium chloride, 8% polyethylene glycol 6,000, 20% glycerol; space group I432; 2.77 Å
[4] = target: C-phycocyanin (αβ) monomer from Thermoleptolyngbya sp. O-77 (TlCPC) (Thermoleptolyngbya sp. O-77); assay: cryo-EM structure; TlCPC 6.7 and 10 mg/mL in potassium phosphate buffer (pH 7.0, 10 mM), flash-frozen on holey carbon grid; single particle analysis; hexamers and octamers in the same specimens

- stoichiometry N [1]: 2 and 6 and 4
- stoichiometry N [2]: 6
- stoichiometry N [3]: 8
- stoichiometry N [4]: 6 and 8
Substance: C-phycocyanin (αβ) monomer from Thermoleptolyngbya sp. O-77 (TlCPC) (complex)
